Experimental data: article PMC2841647 (PLoS ONE, 2010)

Legend:
brain TrkB receptors = target: T1, brain TrkB receptors (Mus musculus, UniProt P15209); experiment: In vivo KIRA-ELISA analysis after intravenous injection; settings: mice, i.v. 2×200 µg, 90-min interval
T1 construct: KIRA-ELISA analysis of brain TrkB receptors from mice; from tissue; host or cells: adult Swiss mouse brain, 300-µm coronal slices
Experimental: Adult Swiss mice (20–25 g) received a double 90-min-interval i.v. injection of saline buffer, tat-cyclotraxin-B (2×200 µg) or tat-empty (2×200 µg). Three hours after the first injection, mice were decapitated, brains quickly removed on ice, 300-µm coronal sections were prepared with a vibratome at three levels (bregma 0.90 mm: caudate putamen/nucleus accumbens level; bregma −1.60 mm: dorsal hippocampus level; bregma −2.70 mm: ventral hippocampus level, see SI Fig. 8A ) and placed in a holding chamber for one hour. Slices were then incubated in Ringer's solution supplemented with tat-cyclotraxin-B or tat-empty (1 µM) in holding chamber saturated with 95% O2, 5% CO2. […] Experiments were stopped by quick removing of the medium on ice. […] Protein concentrations were determined and equal amounts of proteins were loaded in each well for KIRA-ELISA assays (see above). The following antibodies combination was used for phosphorylation assays: TrkB capture with polyclonal anti-TrkB (1 µg/ml); tyrosine phosphorylation quantification with biotinylated anti-phosphotyrosine (4G10, 0.5 µg/ml) and a streptavidin-peroxydase system (1∶4000). The following combination was used for total TrkB quantification: TrkB capture with monoclonal anti-TrkB (1∶1000); total TrkB quantification with polyclonal anti-TrkB (1 µg/ml). Absorbance at 450 nm was read after addition of TMB and acidification. […]

phospho(Y816)-TrkB = target: T2, phospho(Y816)-TrkB (Mus musculus, UniProt P15209); experiment: Western blot with phospho(Y816)-TrkB antibody after intravenous injection; format: in vivo; settings: mice, i.v. injection, vs tat-empty
T2 construct: KIRA-ELISA analysis of brain TrkB receptors from mice; from tissue; host or cells: adult Swiss mouse brain, 300-µm coronal slices
Experimental: Cell lysates were prepared in boiling SDS (2%, w/v) as described previously and subjected to SDS-PAGE. Detection and analysis of eIF4E, MAPK and Akt phosphorylation were done using anti-total and -phospho-eIF4E antibodies (1∶1000, Cell Signaling), anti-total and -phospho-MAPK antibodies (1∶1000, Cell Signaling) or anti-total and–phospho (Ser473) Akt antibodies (1∶1000, Santa Cruz; 1∶1000, Cell Signaling, respectively), respectively. For TrkB expression analysis, cortical neurons were cultured for eight days and TetOn-rhTrkB cells were incubated overnight with doxycycline. Cells were solubilized as for KIRA-ELISA assays and lysates were centrifuged at 14,000×g for 20 min at 4°C. Cleared supernatant was collected and proteins were subjected to SDS-PAGE. Detection of rhTrkB-ECFP and neuronal mouse TrkB were performed using anti-GFP polyclonal antibody (1∶5000, Clontech) and anti-rodent TrkB polyclonal antibody (1 µg/ml, Upstate), respectively. TrkB phosphorylation was quantified using anti-phospho-TrkB antibody (kindly provided by M.V. Chao). Proteins were visualized using appropriate HRP-conjugated secondary antibodies and films were quantified by densitometry.
Supplementary file pone.0009777.s009.tif: Figure S8 Protocol for in vivo KIRA-ELISA analysis after intravenous injection. […] Bands intensity have been quantified (down) Data are mean ± s.e.m. […]

T1 sequence (P15209 32-821): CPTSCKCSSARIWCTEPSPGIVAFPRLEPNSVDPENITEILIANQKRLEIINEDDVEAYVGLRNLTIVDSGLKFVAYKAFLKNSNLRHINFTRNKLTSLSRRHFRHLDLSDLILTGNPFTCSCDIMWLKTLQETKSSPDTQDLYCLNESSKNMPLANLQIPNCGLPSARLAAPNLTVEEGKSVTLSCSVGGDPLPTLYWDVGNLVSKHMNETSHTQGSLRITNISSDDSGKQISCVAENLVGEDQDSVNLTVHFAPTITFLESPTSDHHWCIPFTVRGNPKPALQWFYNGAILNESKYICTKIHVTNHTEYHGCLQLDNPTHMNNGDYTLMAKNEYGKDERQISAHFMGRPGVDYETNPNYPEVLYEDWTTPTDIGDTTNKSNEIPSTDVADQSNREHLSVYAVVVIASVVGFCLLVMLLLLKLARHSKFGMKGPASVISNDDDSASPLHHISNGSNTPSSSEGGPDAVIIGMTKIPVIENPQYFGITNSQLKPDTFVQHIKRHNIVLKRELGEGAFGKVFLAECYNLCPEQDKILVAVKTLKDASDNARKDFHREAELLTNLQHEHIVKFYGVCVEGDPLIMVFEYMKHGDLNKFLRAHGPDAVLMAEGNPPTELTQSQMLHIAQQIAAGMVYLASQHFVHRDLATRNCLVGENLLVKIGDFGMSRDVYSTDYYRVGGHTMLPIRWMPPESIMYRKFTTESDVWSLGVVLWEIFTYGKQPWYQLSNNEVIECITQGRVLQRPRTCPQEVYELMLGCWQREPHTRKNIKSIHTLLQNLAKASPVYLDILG
T2 sequence (P15209 32-821): as above

With “YGRKKRRQRRRCNPMGYTKEGC [tat-cyclotraxin-B]” the “decrease in TrkB activity, injection” value (brain TrkB receptors) was 50.9±3.1% and the “reduction in phospho(Y816)-TrkB band intensity” value (phospho(Y816)-TrkB) was 37.7±4.7%.
